Test results from PMC12412572, “Natural Allelic Variations in IbCHYR1–IbZnFR Complex Regulate Fusarium Root Rot Resistance in Sweet Potato”.

T1: IbZnFR (CCCH-type zinc-finger protein) (Ipomoea batatas, UniProt A0A6M2VA70 1-565)
T1 sequence: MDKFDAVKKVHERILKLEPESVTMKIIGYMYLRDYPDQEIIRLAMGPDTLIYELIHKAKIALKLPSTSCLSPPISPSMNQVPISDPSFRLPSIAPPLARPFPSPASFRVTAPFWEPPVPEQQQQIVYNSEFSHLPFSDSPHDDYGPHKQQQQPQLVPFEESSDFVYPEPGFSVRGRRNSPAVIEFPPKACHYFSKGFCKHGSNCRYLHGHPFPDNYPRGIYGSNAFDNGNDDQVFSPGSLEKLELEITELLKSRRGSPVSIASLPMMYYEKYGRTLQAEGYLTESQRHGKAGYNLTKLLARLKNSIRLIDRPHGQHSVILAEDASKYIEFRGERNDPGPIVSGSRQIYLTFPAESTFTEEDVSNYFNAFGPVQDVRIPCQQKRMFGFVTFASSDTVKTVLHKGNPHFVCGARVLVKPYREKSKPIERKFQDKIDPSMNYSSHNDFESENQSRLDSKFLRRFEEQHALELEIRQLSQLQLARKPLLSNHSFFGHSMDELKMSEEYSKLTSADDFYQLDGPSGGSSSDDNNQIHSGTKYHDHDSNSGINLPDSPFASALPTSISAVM

B1: IbMDAR4 promoter wt probe (dsDNA)
DNA 1: ACATTTACCCGGGAGAACGGATAACG
DNA 2: CGTTATCCGTTCTCCCGGGTAAATGT
B2: IbMRL7L promoter wt probe (dsDNA)
DNA 1: CTTCTTATCCCTCTAACTTTCCTACA
DNA 2: TGTAGGAAAGTTAGAGGGATAAGAAG
B3: IbCOMT promoter wt probe (dsDNA)
DNA 1: AAACCGTTCTCTCTCTTCTTCTTCATCTTC
DNA 2: GAAGATGAAGAAGAAGAGAGAGAACGGTTT
B4: IbCSLE1 promoter wt probe (dsDNA)
DNA 1: ATAGTCTTTGTAGGGAGACACAGACACCAT
DNA 2: ATGGTGTCTGTGTCTCCCTACAAAGACTAT
B5: IbPR5 promoter wt probe (dsDNA)
DNA 1: ATTGTACTAAAAGGGAGAGGATACAAGGTT
DNA 2: AACCTTGTATCCTCTCCCTTTTAGTACAAT

These binders were tested against T1, IbZnFR (CCCH-type zinc-finger protein) (assay: EMSA; LightShift Chemiluminescent EMSA Kit (Thermo), manufacturer's instructions; buffer, salt, pH and temperature not stated). Settings: protein: recombinant; tags: His (pET-28a); label: 5' biotin; blunt.

Binding result, binds:
B1
B2
B3
B4
B5
